Measured values: patent publication US20150344570A1 (published 2015)
Changes are numbered by the printed parent chain. Names and notes keep the numbering of the source. One block for each binder: values may come before it.

Key:
FcgRIIIaV = target: T1, FcgRIIIaV (human, UniProt P08637 17-208); assay: SPR (Biacore); KD of H240-Kn033/H240-Hl033/L73-k0 divided by KD of the variant
T1 construct: extracellular domain; Polymorphic site after J. Clin. Invest; also called FcγRIIIa V; 3aV; not shown: His tag at the C terminus
Protocol: (§1) Next, the amino acid at position 330 was examined. The A330M alteration has been introduced into H240-Hl076 of H240-Kn125/H240-Hl076/L73-k0. […] L73-k0 was used as the common antibody L chain. Binding of the produced variants to FcgRIa, FcgRIIaR, FcgRIIaH, FcgRIIb, FcgRIIIaF, and FcgRIIIaV was measured according to the method of Reference Example 8.
(§2) Analysis of interaction between objective antibody and the FcγR was carried out using Biacore T100 (GE Healthcare), Biacore T200, Biacore A100, and Biacore 4000. HBS-EP+ (GE Healthcare) was used as the running buffer, and the measurement temperature was set to 25° C. Chips produced by immobilizing the antigen peptide by the amine coupling method to a Series S sensor Chip CM5 (GE Healthcare), chips produced by allowing preliminarily biotinylated antigen peptides to interact with and immobilize onto a Series S Sensor Chip SA (certified) (GE Healthcare), chips produced by immobilizing Protein L (ACTIGEN, BioVision) to Series S Sencor Chip CM5 (GE Healthcare), or chips produced by immobilizing Protein A/G (Thermo Scientific) to Series S Sencor Chip CM5 (GE Healthcare) were used. Antibodies of interest were captured onto these chips, and allowed to interact to each FcγR diluted with running buffer. To regenerate and repeatedly use the chip, the antibodies captured onto the chip were washed off by reacting 10 mM glycine-HCl, pH 1.5.

FcgRIIaH = target: T2, FcgRIIaH (human, UniProt P12318 34-217); assay: as above
T2 construct: extracellular domain; also called FcγRIIa H; FcγRIIa type H; not shown: His tag at the C terminus
T2 sequence (looked up): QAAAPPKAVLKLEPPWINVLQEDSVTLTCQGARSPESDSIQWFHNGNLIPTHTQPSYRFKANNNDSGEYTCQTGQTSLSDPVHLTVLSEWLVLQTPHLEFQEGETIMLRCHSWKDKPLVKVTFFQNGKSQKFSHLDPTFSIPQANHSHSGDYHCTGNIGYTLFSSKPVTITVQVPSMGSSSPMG
Protocol: as §1, §2

FcgRIIb = target: T3, FcgRIIb (human, UniProt P31994 43-217); assay: as above
T3 construct: extracellular domain; also called FcγRIIb; 2b; not shown: His tag at the C terminus
T3 sequence (looked up): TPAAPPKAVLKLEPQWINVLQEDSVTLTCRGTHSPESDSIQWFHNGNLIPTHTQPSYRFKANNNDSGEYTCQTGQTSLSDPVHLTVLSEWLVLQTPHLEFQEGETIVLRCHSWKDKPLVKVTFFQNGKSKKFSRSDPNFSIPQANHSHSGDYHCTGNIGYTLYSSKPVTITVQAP
Protocol: as §1, §2

FcgRIIaR = target: T4, FcgRIIaR (human, UniProt P12318 34-217); assay: as above
T4 construct: extracellular domain; also called FcγRIIa R; FcγRIIa type R; not shown: His tag at the C terminus
T4 sequence (looked up): T2 sequence (looked up) with H134R
Protocol: as §1, §2

FcgRIIIaF = target: T5, FcgRIIIaF (human, UniProt P08637 17-208); assay: as above
T5 construct: extracellular domain; Polymorphic site after J. Clin. Invest; also called FcγRIIIa F; 3aF; not shown: His tag at the C terminus
Protocol: as §1, §2

FcγRIIIa = target: T6, FcγRIIIa (human, UniProt P08637 17-208); assay: SPR (Biacore), antibody captured on antigen-peptide chip, FcγR as analyte; relative binding amount
T6 construct: extracellular domain; also called FcgRIIIa; CD16A; not shown: His tag attached to the C terminus
Source text: The expression vectors for the respective H chains were combined in a way that each of the alterations L234Y, G236W, S298A, S239D, A330L, and I332E is present in the same H chain as P329R or in the different H chain from P329R, and the expression vector GpL16-k0 for the L chain was combined with them. Antibodies of interest were expressed and prepared according to the method described in Reference Example 1. The prepared antibodies were used to assay the FcγRIIIa-binding activity. The result of assessment using P329R on the direction of FcγRIIIa recognition by L234Y, G236W, S298A, S239D, A330L, and I332E is summarized in Table 12.
Analysis of interaction between objective antibody and the FcγR was carried out using Biacore T100 (GE Healthcare). HBS-EP+ (GE Healthcare) was used as the running buffer, and the measurement temperature was set to 25° C. Chips produced by immobilizing the antigen peptide by the amine coupling method to a Series S Sencor Chip CM5 (GE Healthcare), or alternatively, chips produced by allowing preliminarily biotinylated antigen peptides to interact with and immobilize onto a Series S Sensor Chip SA (certified) (GE Healthcare) were used. Antibodies of interest were captured onto an antigen peptide-immobilized chip, and allowed to interact to each FcγR diluted with running buffer. To regenerate and repeatedly use the chip, the antibodies captured on the chip were washed off by reacting 10 mM glycine-HCl, pH 1.5.

T1 sequence (P08637 17-208 F176V limits assumed): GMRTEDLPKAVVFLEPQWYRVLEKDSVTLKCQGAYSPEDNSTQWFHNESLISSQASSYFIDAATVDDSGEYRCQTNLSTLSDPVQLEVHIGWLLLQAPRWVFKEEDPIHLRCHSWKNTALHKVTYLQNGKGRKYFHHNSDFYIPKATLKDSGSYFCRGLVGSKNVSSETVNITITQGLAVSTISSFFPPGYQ
T6 sequence (P08637 17-208): as the sequence (P08637 17-208 F176V limits assumed) above, with V160F counted along it
T5 sequence (P08637 17-208): as the sequence (P08637 17-208 F176V limits assumed) above, with V160F counted along it

FcγRIIIa BINDING ACTIVITY (relative) (FcγRIIIa): 60 relative, GpH7-A5/GpH7-B3/GpL16-k0 = 100
B7: GpH7-A5/GpH7-HA5/GpL16-k0 (antibody, human IgG1, kappa)
heavy 1: not shown
heavy 2: QVQLVQSGAEVKKPGASVTVSCKASGYTFTDYEMHWIRQPPGEGLEWIGAIDPKTGDTAYSESFQDRVTLTADKSTSTAYMELSSLTSEDTAVYYCTRFYSYTYWGQGTLVTVSSASTKGPSVFPLAPSSKSTSGGTAALGCLVKDYFPEPVTVSWNSGALTSGVHTFPAVLQSSGLYSLSSVVTVPSSSLGTQTYICNVNHKPSNTKVDKKVEPKSCDKTHTCPPCPAPEYLGGPSVFLFPPKPKDTLMISRTPEVTCVVVDVSHEDPEVKFNWYVDGVEVHNAKTKPREEQYNSTYRVVSVLTVLHQDWLNGKEYKCKVSNKALRAPIEKTISKAKGQPREPQVYTLPPSRDELTKNQVSLTCLVKGFYPSDIAVEWESNGQPENNYKTTPPVLDSDGSFFLYSKLTVDKSRWQQGNVFSCSVMHEALHNHYTQESLSLSP
light: DIVMTQSPLSLPVTPGEPASISCQASESLVHSNRNTYLHWYLQKPGQSPQLLIYKVSNRFSGVPDRFSGSGSGTDFTLKISRVEAEDVGVYYCSQNTHVPPTFGQGTKVEIERTVAAPSVFIFPPSDEQLKSGTASVVCLLNNFYPREAKVQWKVDNALQSGNSQESVTEQDSKDSTYSLSSTLTLSKADYEKHKVYACEVTHQGLSSPVTKSFNRGEC
notes: Anti-glypican-3 IgG1 heterodimer; L234Y and P329R in H2

FcγRIIIa BINDING ACTIVITY (relative) (FcγRIIIa): 56 relative, GpH7-A5/GpH7-B3/GpL16-k0 = 100
B8: GpH7-A5/GpH7-HA6/GpL16-k0 (antibody, human IgG1, kappa)
heavy 1: not shown
heavy 2: B7 heavy 2 with Y232L, G234W
light: B7 light
notes: Anti-glypican-3 IgG1 heterodimer; G236W and P329R in H2

FcγRIIIa BINDING ACTIVITY (relative) (FcγRIIIa): 84 relative, GpH7-A5/GpH7-B3/GpL16-k0 = 100
B9: GpH7-A5/GpH7-HA11/GpL16-k0 (antibody, human IgG1, kappa)
heavy 1: not shown
heavy 2: B7 heavy 2 with Y232L, S296A
light: B7 light
notes: Anti-glypican-3 IgG1 heterodimer; S298A and P329R in H2

FcγRIIIa BINDING ACTIVITY (relative) (FcγRIIIa): 32 relative, GpH7-A5/GpH7-B3/GpL16-k0 = 100
B10: GpH7-A5/GpH7-HA15/GpL16-k0 (antibody, human IgG1, kappa)
heavy 1: not shown
heavy 2: B7 heavy 2 with Y232L, A328L
light: B7 light
notes: Anti-glypican-3 IgG1 heterodimer; A330L and P329R in H2

FcγRIIIa BINDING ACTIVITY (relative) (FcγRIIIa): 35 relative, GpH7-A5/GpH7-B3/GpL16-k0 = 100
B11: GpH7-A5/GpH7-HA18/GpL16-k0 (antibody, human IgG1, kappa)
heavy 1: not shown
heavy 2: B7 heavy 2 with Y232L, I330E
light: B7 light
notes: Anti-glypican-3 IgG1 heterodimer; I332E and P329R in H2

FcγRIIIa BINDING ACTIVITY (relative) (FcγRIIIa): 13 relative, GpH7-A5/GpH7-B3/GpL16-k0 = 100
B12: GpH7-A48/GpH7-B3-03-20W/GpL16-k0 (antibody, human IgG1, kappa)
heavy 1: B7 heavy 2 with Y232L, D354K, H433R, E437K
heavy 2: not shown
light: B7 light
notes: Anti-glypican-3 IgG1 heterodimer; P329R in H1, G236W in H2

FcγRIIIa BINDING ACTIVITY (relative) (FcγRIIIa): 123 relative, GpH7-A5/GpH7-B3/GpL16-k0 = 100
B13: GpH7-A48/GpH7-B3-06-09D/GpL16-k0 (antibody, human IgG1, kappa)
heavy 1: B7 heavy 2 with Y232L, D354K, H433R, E437K
heavy 2: not shown
light: B7 light
notes: Anti-glypican-3 IgG1 heterodimer; P329R in H1, S239D in H2

FcγRIIIa BINDING ACTIVITY (relative) (FcγRIIIa): 11 relative, GpH7-A5/GpH7-B3/GpL16-k0 = 100
B14: GpH7-A48/GpH7-B3-01-15Y/GpL16-k0 (antibody, human IgG1, kappa)
heavy 1: B7 heavy 2 with Y232L, D354K, H433R, E437K
heavy 2: not shown
light: B7 light
notes: Anti-glypican-3 IgG1 heterodimer; P329R in H1, L234Y in H2

The next lines start with the binder.

B1: H240-Kn033/H240-Hl033/L73-k0 (antibody, human IgG1, kappa)
heavy 1: not shown
heavy 2: not shown
light: DIQMTQSPSSLSASVGDRVTITCRASQDIHKYIAWYQQKPGQAPRLLIQYTSTLQPGVPSRFSGSGSGTDYTFTISSLQPEDIATYYCLQYEQLRTFGGGTKVEIKRTVAAPSVFIFPPSDEQLKSGTASVVCLLNNFYPREAKVQWKVDNALQSGNSQESVTEQDSKDSTYSLSSTLTLSKADYEKHKVYACEVTHQGLSSPVTKSFNRGEC
notes: Anti-epiregulin IgG1 with knobs-into-holes alterations only
fold 3aV (FcgRIIIaV): 1 fold
fold 2aH (FcgRIIaH): 1 fold
fold 2b (FcgRIIb): 1 fold
fold 2aR (FcgRIIaR): 1 fold
fold 3aF (FcgRIIIaF): 1 fold

B2: H240-afucosyl_G1d/L73-k0 (antibody, human IgG1, kappa)
heavy: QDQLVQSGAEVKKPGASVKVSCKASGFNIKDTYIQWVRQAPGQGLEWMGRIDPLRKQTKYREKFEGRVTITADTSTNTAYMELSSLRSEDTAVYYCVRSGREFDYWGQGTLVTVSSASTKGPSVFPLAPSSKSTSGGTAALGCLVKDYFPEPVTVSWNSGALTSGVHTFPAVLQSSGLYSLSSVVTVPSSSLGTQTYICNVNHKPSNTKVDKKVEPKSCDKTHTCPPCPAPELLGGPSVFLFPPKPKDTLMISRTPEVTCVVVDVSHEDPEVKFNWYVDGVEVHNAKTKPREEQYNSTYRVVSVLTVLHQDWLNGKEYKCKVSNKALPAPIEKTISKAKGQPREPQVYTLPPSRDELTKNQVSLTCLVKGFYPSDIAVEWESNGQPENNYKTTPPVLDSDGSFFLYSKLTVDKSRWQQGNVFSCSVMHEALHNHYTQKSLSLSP
light: B1 light
modifications: fucose removed from the N-linked sugar chain (afucosylated)
notes: also called afucosylated antibody
fold 3aV (FcgRIIIaV): 7 fold
fold 2aH (FcgRIIaH): 0.7 fold
fold 2b (FcgRIIb): 1.3 fold
fold 2aR (FcgRIIaR): 1.5 fold
fold 3aF (FcgRIIIaF): 3.7 fold

B3: H240-Kn032/H240-Hl032/L73-k0 (antibody, human IgG1, kappa)
heavy 1: QDQLVQSGAEVKKPGASVKVSCKASGFNIKDTYIQWVRQAPGQGLEWMGRIDPLRKQTKYREKFEGRVTITADTSTNTAYMELSSLRSEDTAVYYCVRSGREFDYWGQGTLVTVSSASTKGPSVFPLAPSSKSTSGGTAALGCLVKDYFPEPVTVSWNSGALTSGVHTFPAVLQSSGLYSLSSVVTVPSSSLGTQTYICNVNHKPSNTKVDKKVEPKSCDKTHTCPPCPAPELLGGPDVFLFPPKPKDTLMISRTPEVTCVVVDVSHEDPEVKFNWYVDGVEVHNAKTKPREEQYNSTYRVVSVLTVLHQDWLNGKEYKCKVSNKALPLPEEKTISKAKGQPREPQVCTLPPSRDELTKNQVSLWCLVKGFYPSDIAVEWESNGQPENNYKTTPPVLDSDGSFFLYSKLTVDKSRWQQGNVFSCSVMHEALHNHYTQKSLSLSP
heavy 2: B3 heavy 1 with C348Y, D355C, W365S, L367A, Y406V
light: B1 light
notes: S239D/A330L/I332E in both H chains
fold 3aV (FcgRIIIaV): 15.5 fold
fold 2aH (FcgRIIaH): 0.8 fold
fold 2b (FcgRIIb): 5.3 fold
fold 2aR (FcgRIIaR): 2.2 fold
fold 3aF (FcgRIIIaF): 31.9 fold

B4: H240-Kn205/H240-Hl212/L73-k0 (antibody, human IgG1, kappa)
heavy 1: B3 heavy 1 with L233Y, D238S, Y295W, S297C, L329A, E331I
heavy 2: B3 heavy 1 with L329A, E331I, K333V, C348Y, D355C, W365S, L367A, Y406V
light: B1 light
fold 3aV (FcgRIIIaV): 11.4 fold
fold 2aH (FcgRIIaH): 1.4 fold
fold 2b (FcgRIIb): 2.1 fold
fold 2aR (FcgRIIaR): 1.2 fold
fold 3aF (FcgRIIIaF): 24.2 fold

B5: H240-Kn037/H240-Hl036/L73-k0 (antibody, human IgG1, kappa)
heavy 1: B3 heavy 1 with G235A, L329A
heavy 2: B3 heavy 1 with G235A, L329A, C348Y, D355C, W365S, L367A, Y406V
light: B1 light
notes: It says both H chains have G236A/S239D/I332E
fold 3aV (FcgRIIIaV): 7.1 fold
fold 2aH (FcgRIIaH): 11.3 fold
fold 2b (FcgRIIb): 8.7 fold
fold 2aR (FcgRIIaR): 25.5 fold
fold 3aF (FcgRIIIaF): 13.8 fold

B6: H240-Kn204/H240-Hl211/L73-k0 (antibody, human IgG1, kappa)
heavy 1: B3 heavy 1 with L233Y, D238S, K289Y, Y295W, L329A, E331I
heavy 2: B3 heavy 1 with L329M, E331I, K333V, C348Y, D355C, W365S, L367A, Y406V
light: B1 light
fold 3aV (FcgRIIIaV): 6.5 fold
fold 2aH (FcgRIIaH): 0.7 fold
fold 2b (FcgRIIb): 2.5 fold
fold 2aR (FcgRIIaR): 1.2 fold
fold 3aF (FcgRIIIaF): 20.7 fold
